Measurements reported in the Human Domainome abundance scans (Beltran et al. 2025).

B1: Zinc finger MYM-type protein 2, residues 463 to 506; numbered along this chain, Q9UBW7 (parent)
chain: IMNCCEQCGEYLPSKGAGNNVLVIDGQQKRFCCQSCVSEYKQVG

Variants of: B1
Assay: abundance fitness (aPCA) (normalised: wild type 0, dead -1); higher = more abundant; growth selection in yeast, the domain comes from the species named
Conditions: Homo sapiens

Abundance fitness: each site, then its substitutions
R30: T 0.132, P 0.092, F -0.088, V 0.197, H -0.464, E 0.3, Q 0.193, K 0.216, C 0.262, M 0.068
C8: H -0.233, Q -0.573, D -0.77, G -0.391, V -0.712, R -0.611
Q7: E -0.26, K -0.135, R -0.019, W -0.214, D -0.466, V -0.288, N -0.436, T -0.139, M -0.152, A -0.09
G44: V -0.144, R -0.058, E -0.172, W -0.189
K29: Q -0.283, W -0.432, T -0.313, R -0.06, Y -0.026, I -0.241, N -0.464, A -0.235, M -0.018
G26: L -0.307, I -0.296, S -0.065, W -0.337, Y 0.285, C -0.059, K -0.251, A -0.059
L12: N -0.482, K -0.312, E -0.004, Y -0.444, Q -0.294
S35: C -0.113, V -0.092, H -0.091, K 0.156, M -0.087
E39: A 0.09, L -0.265, Y 0.032, G 0.095
G16: C -0.113, A -0.06, V -0.272, M 0.007, Q 0.07, S -0.047, H -0.249
C5: I -1.08, L -0.922, D -0.637, H -0.641, M -0.979, R -0.697, S -0.524, A -0.65
Q28: K -0.301, I -0.038, P -0.065, T -0.032, L -0.346, V -0.169, Y -0.305
D25: M -0.35, C -0.25, T -0.06, A -0.117, P -0.456
Q34: M 0.044, T -0.031, H 0.004, A 0.061, G -0.017, K -0.213, C -0.113, V 0.036, P -0.033, I -0.448
N3: H -0.154, W -0.402, M -0.194, T -0.249
C33: M -0.201, P -0.342, S 0.024, N -0.164, R -0.121, E 0.008
V23: Y -0.093, R -0.011, G -0.107, K -0.052, H -0.079, A -0.121, F 0.23, D -0.017
C4: W -0.242, Q 0.142, P -0.126, Y -0.45, N 0.214, H 0.019, M -0.146, K 0.125, A -0.147, T -0.021, V -0.029
N20: V -0.019, K -0.209, D -0.248, W -0.191, G -0.119, M -0.038, A -0.037
Y11: R 0.219, C 0.035, T 0.319, Q 0.313, D 0.282, I -0.145, N 0.28, S 0.252, E 0.296, G 0.227
E6: D 0.071, Q -0.116, P -0.253, A -0.197, F -0.229, Y -0.267, T -0.222, R -0.369, K -0.231, H -0.256, N -0.241
I1: A -0.051, G -0.15, D 0.231, L -0.246, T -0.162, S -0.172
S14: K -0.283, C -0.072, Q -0.123, Y -0.802, L -0.107, P 0.33, G -0.098, E 0.13
G18: C -0.247, M -0.214, P 0.007, L -0.432
P13: M -0.59, N -0.565, K -0.678, Q -0.063, E -0.171, G -0.278
C32: E -0.339, R -0.298, N -0.655, I -0.71, A -0.354, W -0.559, G -0.313, Q -0.518, Y -0.634, P -0.454, K -0.439
N19: K -0.287, M -0.061, I -0.141, H -0.157, S 0.001, L -0.051, G 0.006, W -0.212
Q27: V -0.144, S -0.172, C -0.084, L -0.045, W -0.198, G -0.039, F -0.173, E -0.1, P -0.218
V37: T 0.049, P -0.135, C 0.018, D -0.227, R -0.112, W -0.093, K -0.101, E 0.109
V43: W -0.296, L -0.222, G 0.039, M -0.218, P 0.144, E -0.067, D -0.123, T -0.026, H -0.361
I24: M -0.122, V -0.088, A 0.005, P -0.126, R -0.085, G -0.066, W -0.05
L22: V -0.016, P -0.059, S -0.164, R -0.136, K -0.073
C36: P -0.168, V -0.463, E -0.376, H -0.341, G -0.303, L -0.423, S -0.45, D -0.262, F -0.665
S38: A 0.019, I -0.106, M -0.038, L -0.038, D -0.081, H -0.183, K -0.025, P -0.329, E 0.062
K41: F -0.285, S 0.027, Y -0.41, T 0.209, M -0.059, D 0.193, L -0.122, A -0.096, R 0.03
V21: S -0.153, P -0.402, A -0.065, K 0.395, G -0.129, D -0.014, E 0.128
F31: W -0.498, V -0.373, R -0.366, A -0.175, P -0.223, Y -0.144, M -0.267, D -0.167, Q -0.119, K -0.719, H -0.273
A17: T -0.309, G -0.095, C -0.11, L -0.188, H -0.337, V -0.223
Y40: E 0.067, F -0.334, S 0.121, I -0.249, R -0.037, C 0.429, L -0.163, G 0.057
Q42: E -0.102, K -0.045, G 0.076, M -0.119, L -0.101, V 0.151, P -0.169
K15: Y 0.07, P 0.189, D 0.229, V 0.011, W -0.124
M2: S 0.073, G -0.148, N -0.009, E 0.118, Q -0.141, D -0.049, K 0.124, I -0.145, R -0.179, P -0.376, H -0.25
G9: P -0.68, R -0.436, W -0.442, T -0.018, A -0.17, I -0.417, D -0.671
E10: Q -0.403, V -0.86, N -0.389, T -0.751, P -0.356, M -0.656, A -0.477, K -0.068, W -0.4
